Source: patent US20240100159A1, “USE OF IL-7R-ALPHA-GAMMA AGONIST PEPTIDES IN CELL MANUFACTURING” (MEDIKINE, INC., priority 2022, published 2024)

Key:
IL-7Rα subunit = biological target: T1, IL-7Rα subunit (Homo sapiens, UniProt P16871); experiment: Competitive binding assays, unique binding site on the IL-7Rα subunit; conditions: against IL-7Rα ligands SEQ ID NO: 455-459
T1 sequence (P16871 21-459): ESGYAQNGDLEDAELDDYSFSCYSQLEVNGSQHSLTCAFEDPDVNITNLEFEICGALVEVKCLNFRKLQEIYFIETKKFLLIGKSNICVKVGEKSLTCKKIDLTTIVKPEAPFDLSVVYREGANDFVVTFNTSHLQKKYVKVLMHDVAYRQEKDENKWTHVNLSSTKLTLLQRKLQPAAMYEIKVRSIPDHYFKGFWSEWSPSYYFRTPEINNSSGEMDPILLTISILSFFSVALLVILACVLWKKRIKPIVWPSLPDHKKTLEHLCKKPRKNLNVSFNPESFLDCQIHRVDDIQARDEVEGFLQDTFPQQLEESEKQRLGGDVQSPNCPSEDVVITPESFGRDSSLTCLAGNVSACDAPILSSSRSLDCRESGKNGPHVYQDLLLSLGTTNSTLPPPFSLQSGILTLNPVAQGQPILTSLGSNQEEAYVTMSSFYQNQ
Description: The unique binding site of the IL-7Rα subunit for these IL-7Rα ligands can be characterized using competitive binding assays as described, for example, in Example 12.

IL-7Rγc subunit = biological target: T2, IL-7Rγc subunit (Homo sapiens, UniProt P31785); experiment: Competitive binding assays, specific binding site on the IL-7Rγc subunit; conditions: against Rγc ligands SEQ ID NO: 461-465
T2 sequence (P31785 23-369): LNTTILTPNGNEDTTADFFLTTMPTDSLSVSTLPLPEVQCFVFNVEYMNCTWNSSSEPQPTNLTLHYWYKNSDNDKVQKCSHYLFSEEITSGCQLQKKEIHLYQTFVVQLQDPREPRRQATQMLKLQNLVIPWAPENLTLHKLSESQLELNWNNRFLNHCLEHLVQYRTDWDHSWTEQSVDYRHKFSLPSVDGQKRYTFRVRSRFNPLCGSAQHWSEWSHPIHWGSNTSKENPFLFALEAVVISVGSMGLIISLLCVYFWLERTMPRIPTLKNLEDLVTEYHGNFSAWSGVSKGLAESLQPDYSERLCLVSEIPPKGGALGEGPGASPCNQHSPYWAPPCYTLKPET
Description: The specific binding site of the IL-7Rγc subunit for these Rγc ligands can be characterized using competitive binding assays.

Substance | competition for binding to the unique binding site on the IL-7Rα subunit with the group of IL-7Rα ligands (IL-7Rα subunit) | competition for binding to the specific binding site on the IL-7Rγc subunit with the group of Rγc ligands (IL-7Rγc subunit)
V V C Q D W E G V E L C W Q (VVCQDWEGVELCWQ) [SEQ ID NO: 261] | does not compete | 
SEQ ID NO: 460: An IL-7Rα ligand having the amino acid sequence of SEQ ID NO: 460; sequence not printed in the text (YDCRIAQVGELCDL) |  | does not compete
